Experiment [1] has as its target T1, fusion protein of a human IgG1 Fc domain and human LAP-TGFβ1 (human, UniProt P01137 30-390).
T1 construct: printed both as Fc-huB1 and LAP-TGFβ-Fc; also called Fc-huB1; Fc-human LAP
The experiment is described as follows: BLI, antibody on tip, 1:1 model. As for the experimental part:
Binding to human TGFβ1 of a subset of candidates was also tested by bio-layer interferometry (Octet). A streptavidin coated tip was equilibrated for 60 seconds in binding buffer (10 mM sodium phosphate, 150 mM sodium chloride, 1% bovine serum albumin, 0.05% sodium azide). The tip was then dipped in 10 μg/mL biotinylated antibody in binding buffer. After 15 seconds, the tip was washed in binding buffer for 60 seconds, and then dipped in 0-24 nM Fc-human LAP. Analyte association was measured for 5 minutes. The tip was transferred to binding buffer alone, and analyte dissociation was measured for 5 minutes. The association and dissociation data were fit to a 1:1 binding model.
On the technique in general: Biolayer interferometry detects binding as a change in optical thickness at a sensor tip.

Experiment [2] deals with T2, soluble complex of the extracellular domain of human GARP and human LAP-TGFβ1 (human, UniProt Q14392 20-627).
T2 construct: extracellular domain; also called sGARP-LAP-TGFβ1; sGARP-LAP
T2 sequence (chain, as listed by the source limits assumed, chain 1 of 2): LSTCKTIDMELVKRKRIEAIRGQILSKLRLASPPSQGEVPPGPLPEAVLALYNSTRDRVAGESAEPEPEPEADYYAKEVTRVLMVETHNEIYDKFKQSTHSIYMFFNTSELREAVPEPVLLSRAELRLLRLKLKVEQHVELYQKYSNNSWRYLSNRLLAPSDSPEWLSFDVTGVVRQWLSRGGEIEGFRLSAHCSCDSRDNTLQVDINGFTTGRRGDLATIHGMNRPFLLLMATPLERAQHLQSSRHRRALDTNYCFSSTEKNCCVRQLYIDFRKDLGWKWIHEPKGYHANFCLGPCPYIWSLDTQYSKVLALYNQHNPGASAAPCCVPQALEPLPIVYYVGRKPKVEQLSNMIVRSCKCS
T2 sequence (Q14392 20-627 limits assumed, chain 2 of 2): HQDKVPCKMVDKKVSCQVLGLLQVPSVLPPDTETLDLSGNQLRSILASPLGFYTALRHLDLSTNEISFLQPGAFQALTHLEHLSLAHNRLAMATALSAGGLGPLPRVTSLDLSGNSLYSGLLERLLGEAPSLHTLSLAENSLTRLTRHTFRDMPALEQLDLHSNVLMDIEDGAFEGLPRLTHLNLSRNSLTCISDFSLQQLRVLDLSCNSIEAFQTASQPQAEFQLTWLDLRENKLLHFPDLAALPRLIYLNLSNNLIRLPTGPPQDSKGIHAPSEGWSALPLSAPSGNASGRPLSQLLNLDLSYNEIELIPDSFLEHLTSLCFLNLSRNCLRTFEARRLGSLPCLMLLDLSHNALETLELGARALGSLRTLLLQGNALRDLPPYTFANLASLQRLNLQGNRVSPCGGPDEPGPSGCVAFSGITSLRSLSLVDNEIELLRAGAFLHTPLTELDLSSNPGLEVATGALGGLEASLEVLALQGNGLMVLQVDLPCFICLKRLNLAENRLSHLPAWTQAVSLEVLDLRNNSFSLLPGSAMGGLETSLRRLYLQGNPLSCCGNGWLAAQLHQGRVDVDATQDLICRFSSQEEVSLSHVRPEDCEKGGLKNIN
Briefly: BLI, component 1. As for the experimental part:
A streptavidin-functionalized tip was equilibrated in binding buffer (10 mM sodium phosphate, 150 mM sodium chloride, 1% (w/v) bovine serum albumin, 0.05% (w/v) sodium azide, pH 7.4) and dipped in a 5 μg/mL solution of biotinylated antibody (i.e., 20E6_H0.2aL1_hIgG1, murine 16F4, or MHG8, a GARP-specific murine IgG2a described in Lienart et al. Science 2018; 362:952-956) in binding buffer for 30 seconds to load the tip with antibody. The antibody-loaded tip was then washed in binding buffer and placed in a solution containing 0-24 nM of a fusion protein containing a human IgG1 Fc domain fused to either human LAP-TGFβ1, the soluble GARP-LAP-TGFβ1 complex, or the soluble ECR3E-LAP-TGFβ1 complex. The antigen was allowed to bind to antibody for 5 minutes (association phase), and then the tip was moved to binding buffer (dissociation phase). The binding and dissociation data for 16F4 and MHG8 were well-fit by a 1:1 binding model. The association and dissociation phases for 20E6_H0.2aL1_hIgG1 antibody were fit to a 2:1 heterogenous ligand binding model to determine the binding rate constants.
As shown in FIG. 24 and Table 21, the 20E6_H0.2aL1_hIgG1 antibody bound to free LAP-TGFβ1 and the soluble GARP-LAP-TGFβ1 complex with nanomolar affinity, but not to the ECR3E-LAP-TGFβ1 complex. As expected, the anti-GARP antibody (MHG8) bound to the GARP-LAP-TGFβ1 complex, but not to free LAP-TGFβ1 or the ECR3E-LAP-TGFβ1 complex. 16F4 bound tightly to all three constructs.

In experiment [3] the target is T1, fusion protein of a human IgG1 Fc …. Briefly: BLI, 2:1 heterogeneous ligand model, component 1. The method, then:
The 20E6_H0.2aL1_IgG1 antibody was biotinylated using EZ-Link SulfoNHS-LC-Biotin (ThermoFisher). A streptavidin-functionalized tip was equilibrated in binding buffer (10 mM sodium phosphate, 150 mM sodium chloride, 1% (w/v) bovine serum albumin, 0.05% (w/v) sodium azide, pH 7.4) and dipped in a 10 μg/mL solution of biotinylated anti-LAP in binding buffer for 30 seconds to load the tip with antibody. The antibody-loaded tip was then washed in binding buffer and placed in a solution containing 0-24 nM of a fusion protein having a human IgG1 Fc domain fused to either human LAP-TGFβ1, human LAP-TGFβ2 or human LAP-TGFβ3. The antigen was allowed to bind to antibody for 5 minutes (association phase), and then the tip was moved to binding buffer (dissociation phase). The association and dissociation phases were fit to a 2:1 heterogenous ligand binding model to determine the binding rate constants. As shown in FIG. 21A and Table 17, 20E6_H0.2aL1_IgG1 bound with sub-nanomolar affinity to human LAP-TGFβ1, but not to human LAP-TGFβ2 (FIG. 21B) or LAP-TGFβ3 (FIG. 21C).

T1 sequence (P01137 30-390 limits assumed): as the sequence (chain, as listed by the source limits assumed, chain 1 of 2) above

B1: 22F9_hIgG1 (antibody, V domains shown)
VH: QVQLQQPGAELVKPGASVKLSCKASGYTFTSYWMHWVKQRPGQGLEWIGMIHPNSGSTNYNEKFKSKATLTVDKSSSTAYMQLSSLTSEDSAVYYCAYYDYDGFFDVWGTGTTVTVSS
VL: DIVLTQSPASLDVSLGQRATISCRASKSVSTSGYSYMHWYQQKSGQPPKLLIYLASNLESGVPARFSGSGSGTHFTLNIHPVEEEDAATYYCQHSRELPYTFGGGTKLEIK
Usually Kd stands for the equilibrium constant for the complex coming apart. In general, koff refers to a measure of how fast the partners let go of each other. The low end stands for a long-lived complex, the high end for a short-lived complex. Broadly, the kon is the second-order rate constant of association. A higher kon goes with faster complex formation. For B1, in experiment [1], the affinity, expressed as Kd, was 3.74 nM; the koff is 0.00168 s⁻¹; the kon stood at 450000 M⁻¹ s⁻¹.

B2: 20E6_H0.2aL1_hIgG1 (antibody)
heavy: not shown
light: DIQMTQSPSSLSASVGDRVTITCRASQDITNYLNWYQQKPGKAVKLLIYYTSRLHSGVPSRFSGSGSGTDYTLTISSLQPEDFATYFCQQGDTLPWTFGQGTKLEIKRTVAAPSVFIFPPSDEQLKSGTASVVCLLNNFYPREAKVQWKVDNALQSGNSQESVTEQDSKDSTYSLSSTLTLSKADYEKHKVYACEVTHQGLSSPVTKSFNRGEC
notes: also called 20E6_H0.2aL1_IgG1; humanized 20E6
In experiment [2], B2 gave a Kd of 18.7 nM, a koff of 0.0518 s⁻¹ and a kon of 2.77e+06 M⁻¹ s⁻¹. For the same molecule, in experiment [3], the Kd was determined as 11.4 nM, the koff was 0.0369 s⁻¹ and the kon was determined as 3.24e+06 M⁻¹ s⁻¹.

The values are drawn from patent publication US20220017612A1 (TILOS THERAPEUTICS, published 2022).
